Assay results reported in publication PMC10362042 (Nature Communications, 2023).
Where “and” joins values, the source holds several entries; their conditions need not be identical. Identical values can stand only once.

Columns and labels:
Test in all cases: SPR
Conditions in all cases: both partners purified
[1] = biological target: SARS-CoV-2 Omicron BA.2 RBD (residues 319-541) (SARS-CoV-2, UniProt P0DTC2 319-541)
[2] = biological target: SARS-CoV-2 Omicron BA.1 RBD (residues 319-541) (SARS-CoV-2, UniProt P0DTC2 319-541)
[3] = biological target: SARS-CoV-2 Omicron BA.4/5 RBD (residues 319-541) (SARS-CoV-2, UniProt P0DTC2 319-541)
[4] = biological target: T1, SARS-CoV-2 Omicron BA.2 RBD (residues 319-541) (SARS-CoV-2, UniProt P0DTC2 319-541); remark: listed apart in the source
[5] = biological target: T2, SARS-CoV-2 Omicron BA.1 RBD (residues 319-541) (SARS-CoV-2, UniProt P0DTC2 319-541); remark: listed apart in the source
[6] = biological target: T3, SARS-CoV-2 Omicron BA.4/5 RBD (residues 319-541) (SARS-CoV-2, UniProt P0DTC2 319-541); remark: listed apart in the source
[7] = biological target: T1, SARS-CoV-2 Omicron BA.2 RBD (residues …); remark: listed apart in the source
[8] = biological target: T2, SARS-CoV-2 Omicron BA.1 RBD (residues …); remark: listed apart in the source
[9] = biological target: T3, SARS-CoV-2 Omicron BA.4/5 RBD (residues …); remark: listed apart in the source

B1: Cat ACE2 (receptor)
chain: QSTTEELAKTFLEKFNHEAEELSYQSSLASWNYNTNITDENVQKMNEAGAKWSAFYEEQSKLAKTYPLAEIHNTTVKRQLQALQQSGSSVLSADKSQRLNTILNAMSTIYSTGKACNPNNPQECLLLEPGLDDIMENSKDYNERLWAWEGWRAEVGKQLRPLYEEYVALKNEMARANNYEDYGDYWRGDYEEEWTDGYNYSRSQLIKDVEHTFTQIKPLYQHLHAYVRAKLMDTYPSRISPTGCLPAHLLGDMWGRFWTNLYPLTVPFGQKPNIDVTDAMVNQSWDARRIFKEAEKFFVSVGLPNMTQGFWENSMLTEPGDSRKVVCHPTAWDLGKGDFRIKMCTKVTMDDFLTAHHEMGHIQYDMAYAVQPFLLRNGANEGFHEAVGEIMSLSAATPNHLKTIGLLSPGFSEDSETEINFLLKQALTIVGTLPFTYMLEKWRWMVFKGEIPKEQWMQKWWEMKREIVGVVEPVPHDETYCDPASLFHVANDYSFIRYYTRTIYQFQFQEALCRIAKHEGPLHKCDISNSSEAGKKLLQMLTLGKSKPWTLALEHVVGEKKMNVTPLLKYFEPLFTWLKEQNRNSFVGWNTDWRPYADQSIKVRISLKSALGDEAYEWNDNEMYLFRSSVAYAMREYFSKVKNQTIPFVEDNVWVSNLKPRISFNFFVTASKNVSDVIPRSEVEEAIRMSRSRINDAFRLDDNSLEFLGIQPTLSPPYQPPVT
[1]
  Kd: 133 nM and 128 nM and 158 nM and 140 nM
  koff: 0.014 s⁻¹ and 0.036 s⁻¹ and 0.029 s⁻¹
  kon: 180000 M⁻¹ s⁻¹ and 200000 M⁻¹ s⁻¹ and 100000 M⁻¹ s⁻¹
[2]
  Kd: 60.8 nM and 78.5 nM and 65.2 nM and 68.2 nM
  kon: 2.8e+06 M⁻¹ s⁻¹ and 4.2e+06 M⁻¹ s⁻¹ and 2e+06 M⁻¹ s⁻¹
[3]
  Kd: 149 nM (2×) and 166 nM and 155 nM
  koff: 0.069 s⁻¹ and 0.071 s⁻¹ and 0.079 s⁻¹
  kon: 470000 M⁻¹ s⁻¹ and 570000 M⁻¹ s⁻¹ and 380000 M⁻¹ s⁻¹

B2: Horse ACE2 (receptor)
chain: QSTTEDLAKTFLEKFNSEAEELSHQSSLASWSYNTNITDENVQKMNEAGARWSAFYEEQCKLAKTYPLEEIQNLTVKRQLQALQQSGSSVLSADKSKRLNEILNTMSTIYSTGKVCNPSNPQECLLLEPGLDAIMENSKDYNQRLWAWEGWRSEVGKQLRPLYEEYVVLKNEMARANNYEDYGDYWRGDYEAEGPSGYDYSRDQLIEDVERTFAEIKPLYEHLHAYVRAKLMDTYPSHINPTGCLPAHLLGDMWGRFWTNLYSLTVPFGQKPNIDVTDAMVDQSWDAKRIFEEAEKFFVSVGLPNMTQGFWENSMLTEPGDGRKVVCHPTAWDLGKGDFRIKMCTKVTMDDFLTAHHEMGHIQYDMAYAVQPYLLRNGANEGFHEAVGEIMSLSAATPNHLKAIGLLPPDFYEDSETEINFLLKQALTIVGTLPFTYMLEKWRWMVFKGEIPKEEWMKKWWEMKREIVGVVEPVPHDETYCDPAALFHVANDYSFIRYYTRTIYQFQFQEALCQTAKHEGPLHKCDISNSTEAGQKLLQMLSLGKSEPWTLALERIVGVKNMDVRPLLNYFEPLFTWLKDQNKNSFVGWSTNWSPYAD
[4]
  Kd: 38200 nM and 38800 nM and 44600 nM and 40500 nM
  koff: 0.38 s⁻¹ and 0.37 s⁻¹
  kon: 9800 M⁻¹ s⁻¹ and 9600 M⁻¹ s⁻¹ and 8400 M⁻¹ s⁻¹
[5]
  Kd: 7440 nM and 7790 nM and 8720 nM and 7980 nM
  koff: 0.23 s⁻¹ and 0.25 s⁻¹ and 0.26 s⁻¹
  kon: 30000 M⁻¹ s⁻¹ and 32000 M⁻¹ s⁻¹
[6]
  Kd: 455 nM and 445 nM and 459 nM and 453 nM
  koff: 0.02 s⁻¹ and 0.021 s⁻¹
  kon: 45000 M⁻¹ s⁻¹ and 46000 M⁻¹ s⁻¹

B3: Golden Hamster ACE2 (residues 1-615) (receptor)
chain: QSIIEEQAKTFLDKFNQEAEDLSYQSALASWNYNTNITEENAQKMNEAAAKWSAFYEEQSKLAKNYSLQEVQNLTIKRQLQALQQSGSSALSADKNKQLNTILNTMSTIYSTGKVCNPKNPQECLLLEPGLDDIMATSTDYNERLWAWEGWRAEVGKQLRPLYEEYVVLKNEMARANNYEDYGDYWRGDYEAEGADGYNYNGNQLIEDVERTFKEIKPLYEQLHAYVRTKLMNTYPSYISPTGCLPAHLLGDMWGRFWTNLYPLTVPFGQKPNIDVTDAMVNQGWNAERIFKEAEKFFVSVGLPYMTQGFWENSMLTDPGDDRKVVCHPTAWDLGKGDFRIKMCTKVTMDNFLTAHHEMGHIQYDMAYATQPFLLRNGANEGFHEAVGEIMSLSAATPEHLKSIGLLPSDFQEDNETEINFLLKQALTIVGTLPFTYMLEKWRWMVFKGDIPKEQWMEKWWEMKREIVGVVEPLPHDETYCDPAALFHVSNDYSFIRYYTRTIYQFQFQEALCQAAKHDGPLHKCDISNSTEAGQKLLNMLRLGKSEPWTLALENVVGARNMDVRPLLNYFEPLSVWLKEQNKNSFVGWNTDWSPYAD
[7]
  Kd: 174 nM and 106 nM and 167 nM and 149 nM
  koff: 0.86 s⁻¹ and 1 s⁻¹ and 0.75 s⁻¹
  kon: 2.5e+06 M⁻¹ s⁻¹ and 3e+06 M⁻¹ s⁻¹ and 2e+06 M⁻¹ s⁻¹
[8]
  Kd: 277 nM and 230 nM and 296 nM and 268 nM
[9]
  Kd: 118 nM and 117 nM and 166 nM and 133 nM
  kon: 26000 M⁻¹ s⁻¹ and 13000 M⁻¹ s⁻¹ and 16000 M⁻¹ s⁻¹
